Assay results as given in IntAct's records for PubMed 22483112.

Molecular target: myh9_human MYH9 (UniProt P35579)
Sequence (P35579 whole entry): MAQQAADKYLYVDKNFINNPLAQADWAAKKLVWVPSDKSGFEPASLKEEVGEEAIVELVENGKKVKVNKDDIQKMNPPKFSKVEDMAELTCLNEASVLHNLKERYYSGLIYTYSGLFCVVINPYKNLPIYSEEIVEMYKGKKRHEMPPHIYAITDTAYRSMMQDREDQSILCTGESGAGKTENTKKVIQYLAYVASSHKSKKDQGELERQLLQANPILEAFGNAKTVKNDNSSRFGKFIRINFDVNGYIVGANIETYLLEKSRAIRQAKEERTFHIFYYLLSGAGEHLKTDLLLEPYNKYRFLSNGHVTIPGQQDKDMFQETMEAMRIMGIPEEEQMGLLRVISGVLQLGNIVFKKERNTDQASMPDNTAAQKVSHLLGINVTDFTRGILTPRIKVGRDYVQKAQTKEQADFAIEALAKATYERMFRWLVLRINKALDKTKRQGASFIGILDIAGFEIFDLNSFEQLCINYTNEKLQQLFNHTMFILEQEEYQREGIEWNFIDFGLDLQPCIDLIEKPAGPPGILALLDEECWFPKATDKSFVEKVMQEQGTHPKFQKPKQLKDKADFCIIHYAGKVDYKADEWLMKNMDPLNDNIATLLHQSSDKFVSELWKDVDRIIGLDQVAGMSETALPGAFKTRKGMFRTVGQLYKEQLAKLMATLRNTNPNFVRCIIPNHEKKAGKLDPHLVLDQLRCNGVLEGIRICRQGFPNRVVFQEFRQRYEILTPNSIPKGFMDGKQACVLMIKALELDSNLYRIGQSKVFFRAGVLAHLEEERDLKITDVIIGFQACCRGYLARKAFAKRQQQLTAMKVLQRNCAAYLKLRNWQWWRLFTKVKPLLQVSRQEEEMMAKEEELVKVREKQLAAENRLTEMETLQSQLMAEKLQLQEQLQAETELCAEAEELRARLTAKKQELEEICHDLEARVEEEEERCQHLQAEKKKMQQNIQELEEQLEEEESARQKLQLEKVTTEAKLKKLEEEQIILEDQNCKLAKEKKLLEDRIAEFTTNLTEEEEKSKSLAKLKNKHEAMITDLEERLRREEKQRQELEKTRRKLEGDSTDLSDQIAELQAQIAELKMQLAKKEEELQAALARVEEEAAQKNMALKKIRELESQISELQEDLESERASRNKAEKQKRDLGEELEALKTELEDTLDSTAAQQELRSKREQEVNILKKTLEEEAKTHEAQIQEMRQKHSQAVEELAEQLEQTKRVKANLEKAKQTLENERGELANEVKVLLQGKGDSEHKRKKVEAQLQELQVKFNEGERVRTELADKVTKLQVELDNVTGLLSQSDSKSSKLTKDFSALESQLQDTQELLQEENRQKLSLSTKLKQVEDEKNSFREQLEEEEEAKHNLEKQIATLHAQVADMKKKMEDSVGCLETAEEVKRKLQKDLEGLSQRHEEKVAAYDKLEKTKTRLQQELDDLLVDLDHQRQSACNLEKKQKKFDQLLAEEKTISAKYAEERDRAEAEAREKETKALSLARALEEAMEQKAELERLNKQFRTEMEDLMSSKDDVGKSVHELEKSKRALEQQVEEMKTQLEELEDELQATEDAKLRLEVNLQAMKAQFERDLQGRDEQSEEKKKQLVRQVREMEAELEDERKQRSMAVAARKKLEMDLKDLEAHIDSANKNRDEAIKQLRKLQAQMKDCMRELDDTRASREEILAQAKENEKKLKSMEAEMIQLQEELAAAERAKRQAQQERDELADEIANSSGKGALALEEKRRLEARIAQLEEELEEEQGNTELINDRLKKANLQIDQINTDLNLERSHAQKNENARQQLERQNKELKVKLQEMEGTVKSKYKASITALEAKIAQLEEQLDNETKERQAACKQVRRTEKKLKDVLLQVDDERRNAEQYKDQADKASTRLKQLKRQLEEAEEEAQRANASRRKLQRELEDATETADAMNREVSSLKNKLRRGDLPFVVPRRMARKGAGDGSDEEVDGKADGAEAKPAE

Chain of Protein S100-A4 (Homo sapiens), P26447 C81D (P26447 whole entry C81D): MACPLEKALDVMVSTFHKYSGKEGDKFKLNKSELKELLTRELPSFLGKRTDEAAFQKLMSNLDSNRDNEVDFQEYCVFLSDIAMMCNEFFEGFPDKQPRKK

Row | Substance | effect of a mutation on the interaction
1 | Protein S100-A4 (Homo sapiens), P26447 C81D | disrupting interaction strength
2 | Protein S100-A4 (Homo sapiens), P26447 V77D | disrupting interaction strength
